Reference: patent publication US20230002480A1

Legend:
Assay in all cases: cell-based or functional assay
[1] = target: HIV-1 Env of pseudovirus BJOX025000.01.1 (HIV-1)
[2] = target: HIV-1 Env of pseudovirus 231965.c01 (HIV-1)
[3] = target: HIV-1 Env of pseudovirus TRO.11 (HIV-1)
[4] = target: HIV-1 Env of pseudovirus Ce1176_A3 (HIV-1)
[5] = target: HIV-1 Env of pseudovirus HIV-0013095-2.11 (HIV-1)
[6] = target: HIV-1 Env of pseudovirus Du156.12 (HIV-1)
[7] = target: HIV-1 Env of pseudovirus SC422661.8 (HIV-1)
[8] = target: HIV-1 Env of pseudovirus 211-9 (HIV-1)
[9] = target: HIV-1 Env of pseudovirus X2088_c9 (HIV-1)
[10] = target: HIV-1 Env of pseudovirus THRO4156.18 (HIV-1)
[11] = target: HIV-1 Env of pseudovirus Q461.e2 (HIV-1)
[12] = target: HIV-1 Env of pseudovirus 6480.v4.c25 (HIV-1)
[13] = target: HIV-1 Env of pseudovirus 3016.v5.c45 (HIV-1)
[14] = target: HIV-1 Env of pseudovirus Ce2010_F5 (HIV-1)
[15] = target: HIV-1 Env of pseudovirus 191955_A11 (HIV-1)
[16] = target: HIV-1 Env of pseudovirus 6240_08_TA5_4622 (HIV-1)
[17] = target: HIV-1 Env of pseudovirus CNE19 (HIV-1)
[18] = target: HIV-1 Env of pseudovirus T250-4 (HIV-1)
[19] = target: HIV-1 Env of pseudovirus ZM109F.PB4 (HIV-1)
[20] = target: HIV-1 Env of pseudovirus CNE52 (HIV-1)
[21] = target: HIV-1 Env of pseudovirus 231966.c02 (HIV-1)
[22] = target: HIV-1 Env of pseudovirus P1981_C5_3 (HIV-1)
[23] = target: HIV-1 Env of pseudovirus WEAU_d15_410_787 (HIV-1)
[24] = target: HIV-1 Env of pseudovirus 1012_11_TC21_3257 (HIV-1)
[25] = target: HIV-1 Env of pseudovirus CNE21 (HIV-1)
[26] = target: HIV-1 Env of pseudovirus ZM247v1(Rev-) (HIV-1)
[27] = target: HIV-1 Env of pseudovirus CNE53 (HIV-1)
[28] = target: HIV-1 Env of pseudovirus Ce1172_H1 (HIV-1)
[29] = target: HIV-1 Env of pseudovirus BJOX028000.10.3 (HIV-1)
[30] = target: HIV-1 Env of pseudovirus T255-34 (HIV-1)
[31] = target: HIV-1 Env of pseudovirus 3365.v2.c2 (HIV-1)
[32] = target: HIV-1 Env of pseudovirus C2101.c01 (HIV-1)
[33] = target: HIV-1 Env of pseudovirus HIV-16845-2.22 (HIV-1)
[34] = target: HIV-1 Env of pseudovirus 6041.v3.c23 (HIV-1)
[35] = target: HIV-1 Env of pseudovirus AC10.0.29 (HIV-1)
[36] = target: HIV-1 Env of pseudovirus 0260.v5.c36 (HIV-1)
[37] = target: HIV-1 Env of pseudovirus CNE17 (HIV-1)

In the case of N49P6 (antibody), the IC50 [1] is reported as 14.9 µg/mL, the IC80 [1] is reported as greater than 50 µg/mL and the MPI [1] is reported as 78. The IC50 [2] was 9.24 µg/mL, the IC80 [2] was 39.4 µg/mL and the MPI [2] was 87. It also gave an IC50 [3] of 0.061 µg/mL, an IC80 [3] of 0.19 µg/mL and an MPI [3] of 100. For the same substance, the IC50 [4] was 0.594 µg/mL, the IC80 [4] was 2.11 µg/mL and the MPI [4] was 100. The IC50 [5] was 0.971 µg/mL, the IC80 [5] was 8.04 µg/mL and the MPI [5] was 96. The IC50 [6] was 0.082 µg/mL, the IC80 [6] was 0.28 µg/mL and the MPI [6] was 100. The IC50 [7] was 0.129 µg/mL, the IC80 [7] was 0.36 µg/mL and the MPI [7] was 100. The IC50 [8] was 8.49 µg/mL, the IC80 [8] was 27.7 µg/mL and the MPI [8] was 93. For the same substance, the IC50 [9] was 27 µg/mL, the IC80 [9] was greater than 50 µg/mL and the MPI [9] was 65. It also gave an IC50 [10] of 12.5 µg/mL, an IC80 [10] of 38.4 µg/mL and an MPI [10] of 89. For the same substance, the IC50 [11] was 0.173 µg/mL, the IC80 [11] was 0.622 µg/mL and the MPI [11] was 100. It also gave an IC50 [12] of 0.089 µg/mL, an IC80 [12] of 0.427 µg/mL and an MPI [12] of 100. For the same substance, the IC50 [13] was 21.7 µg/mL, the IC80 [13] was greater than 50 µg/mL and the MPI [13] was 72. The IC50 [14] was 0.124 µg/mL, the IC80 [14] was 0.749 µg/mL and the MPI [14] was 100. It also gave an IC50 [15] of 0.124 µg/mL, an IC80 [15] of 0.344 µg/mL and an MPI [15] of 100. The IC50 [16] was 0.567 µg/mL, the IC80 [16] was 1.76 µg/mL and the MPI [16] was 100. It also gave an IC50 [17] of 0.044 µg/mL, an IC80 [17] of 0.156 µg/mL and an MPI [17] of 100. It also gave an IC50 [18] of 21.9 µg/mL, an IC80 [18] greater than 50 µg/mL and an MPI [18] of 68. The IC50 [19] was 0.084 µg/mL, the IC80 [19] was 0.29 µg/mL and the MPI [19] was 99. It also gave an IC50 [20] of 0.028 µg/mL, an IC80 [20] of 0.095 µg/mL and an MPI [20] of 100. For the same substance, the IC50 [21] was 0.339 µg/mL, the IC80 [21] was 1.62 µg/mL and the MPI [21] was 100. The IC50 [22] was 0.31 µg/mL, the IC80 [22] was 0.708 µg/mL and the MPI [22] was 100. The IC50 [23] was 0.07 µg/mL, the IC80 [23] was 0.188 µg/mL and the MPI [23] was 100. It also gave an IC50 [24] of 0.137 µg/mL, an IC80 [24] of 0.502 µg/mL and an MPI [24] of 100. The IC50 [25] was 0.832 µg/mL, the IC80 [25] was 6.52 µg/mL and the MPI [25] was 99. It also gave an IC50 [26] of 0.063 µg/mL, an IC80 [26] of 0.17 µg/mL and an MPI [26] of 100. For the same substance, the IC50 [27] was 0.249 µg/mL, the IC80 [27] was 0.871 µg/mL and the MPI [27] was 99. The IC50 [28] was 14.4 µg/mL, the IC80 [28] was 47.3 µg/mL and the MPI [28] was 82. For the same substance, the IC50 [29] was 6.68 µg/mL, the IC80 [29] was greater than 50 µg/mL and the MPI [29] was 77. The IC50 [30] was 0.076 µg/mL, the IC80 [30] was 0.392 µg/mL and the MPI [30] was 100. It also gave an IC50 [31] of 0.129 µg/mL, an IC80 [31] of 0.347 µg/mL and an MPI [31] of 100. For the same substance, the IC50 [32] was 0.14 µg/mL, the IC80 [32] was 0.597 µg/mL and the MPI [32] was 100. It also gave an IC50 [33] of 0.692 µg/mL, an IC80 [33] of 3.75 µg/mL and an MPI [33] of 100. For the same substance, the IC50 [34] was 5.53 µg/mL, the IC80 [34] was 43.2 µg/mL and the MPI [34] was 88. It also gave an IC50 [35] of 32.3 µg/mL, an IC80 [35] greater than 50 µg/mL and an MPI [35] of 67. The IC50 [36] was 0.485 µg/mL, the IC80 [36] was 1.55 µg/mL and the MPI [36] was 100. The IC50 [37] was 0.34 µg/mL, the IC80 [37] was 2.1 µg/mL and the MPI [37] was 100.

Work on VRC07 (antibody) yielded an IC50, titer in TZM.bl cells [1] of 0.279 µg/mL, an IC80, titer in TZM.bl cells [1] of 2.29 µg/mL and an IC50, titer in TZM.bl cells [2] of 0.085 µg/mL. It also gave an IC80, titer in TZM.bl cells [2] of 0.263 µg/mL, a neutralization IC50 [3] of 0.132 µg/mL and a neutralization IC80 [3] of 0.456 µg/mL. The neutralization IC50 [4] was 0.52 µg/mL, the neutralization IC80 [4] was 2.6 µg/mL and the neutralization IC50 [5] was 0.017 µg/mL. It also gave a neutralization IC80 [5] of 0.057 µg/mL, a neutralization IC50 [6] of 0.041 µg/mL and a neutralization IC80 [6] of 0.149 µg/mL. It also gave a neutralization IC50 [7] of 0.054 µg/mL, a neutralization IC80 [7] of 0.175 µg/mL and an IC50, titer in TZM.bl cells [8] of 5.92 µg/mL. It also gave an IC80, titer in TZM.bl cells [8] of 38 µg/mL, an IC50, titer in TZM.bl cells [9] greater than 50 µg/mL and an IC80, titer in TZM.bl cells [9] greater than 50 µg/mL. For the same substance, the neutralization IC50 [10] was 2.4 µg/mL, the neutralization IC80 [10] was 12.2 µg/mL and the neutralization IC50 [11] was 0.282 µg/mL. For the same substance, the neutralization IC80 [11] was 1.02 µg/mL, the IC50, titer in TZM.bl cells [12] was 0.032 µg/mL and the IC80, titer in TZM.bl cells [12] was 0.134 µg/mL. The IC50, titer in TZM.bl cells [13] was 0.095 µg/mL, the IC80, titer in TZM.bl cells [13] was 0.392 µg/mL and the neutralization IC50 [14] was 0.131 µg/mL. The neutralization IC80 [14] was 0.48 µg/mL, the neutralization IC50 [15] was 0.978 µg/mL and the neutralization IC80 [15] was 4.82 µg/mL. It also gave a neutralization IC50 [16] of 0.448 µg/mL, a neutralization IC80 [16] of 1.54 µg/mL and a neutralization IC50 [17] of 0.092 µg/mL. The neutralization IC80 [17] was 0.232 µg/mL, the IC50, titer in TZM.bl cells [18] was greater than 50 µg/mL and the IC80, titer in TZM.bl cells [18] was greater than 50 µg/mL. For the same substance, the neutralization IC50 [19] was 0.112 µg/mL, the neutralization IC80 [19] was 0.389 µg/mL and the neutralization IC50 [20] was 0.042 µg/mL. It also gave a neutralization IC80 [20] of 0.142 µg/mL, an IC50, titer in TZM.bl cells [21] of 0.105 µg/mL and an IC80, titer in TZM.bl cells [21] of 0.471 µg/mL. The IC50, titer in TZM.bl cells [22] was 0.213 µg/mL, the IC80, titer in TZM.bl cells [22] was 0.609 µg/mL and the neutralization IC50 [23] was 0.034 µg/mL. For the same substance, the neutralization IC80 [23] was 0.115 µg/mL, the neutralization IC50 [24] was 0.014 µg/mL and the neutralization IC80 [24] was 0.045 µg/mL. The neutralization IC50 [25] was 0.05 µg/mL, the neutralization IC80 [25] was 0.222 µg/mL and the neutralization IC50 [26] was 0.041 µg/mL. The neutralization IC80 [26] was 0.189 µg/mL, the neutralization IC50 [27] was 0.031 µg/mL and the neutralization IC80 [27] was 0.086 µg/mL. For the same substance, the neutralization IC50 [28] was greater than 50 µg/mL, the neutralization IC80 [28] was greater than 50 µg/mL and the IC50, titer in TZM.bl cells [29] was 0.011 µg/mL. It also gave an IC80, titer in TZM.bl cells [29] of 0.069 µg/mL, an IC50, titer in TZM.bl cells [30] of 0.227 µg/mL and an IC80, titer in TZM.bl cells [30] of 0.987 µg/mL. It also gave a neutralization IC50 [31] of 0.038 µg/mL, a neutralization IC80 [31] of 0.109 µg/mL and an IC50, titer in TZM.bl cells [32] of 0.238 µg/mL. For the same substance, the IC80, titer in TZM.bl cells [32] was 1.4 µg/mL, the neutralization IC50 [33] was 1.21 µg/mL and the neutralization IC80 [33] was 6.15 µg/mL. It also gave an IC50, titer in TZM.bl cells [34] of 0.018 µg/mL, an IC80, titer in TZM.bl cells [34] of 0.058 µg/mL and a neutralization IC50 [35] of 0.282 µg/mL. For the same substance, the neutralization IC80 [35] was 0.986 µg/mL, the neutralization IC50 [36] was 0.448 µg/mL and the neutralization IC80 [36] was 1.62 µg/mL. The neutralization IC50 [37] was 0.136 µg/mL and the neutralization IC80 [37] was 0.651 µg/mL.
